Laboratory results taken from paper PMC5452337.

What was measured:
Test in all cases: co-IP; lysates of CHO GABABR1b/R2 cells transiently expressing KCC2-GFP constructs or GFP, CHAPS buffer; anti-GFP as the precipitating antibody; blots probed for GABABR1 (quantified against FL-KCC2 = 100%) or transferrin receptor
[1] = target: KCC2 deletion mutant NTD + TMD fused to GFP (rat)
[2] = target: KCC2 deletion mutant TMD + CTD fused to GFP (rat)
[3] = target: KCC2 transmembrane domain (TMD) fused to GFP (rat)
KCC2 transmembrane domain (TMD) fused to GFP (rat), sequence (Q63633 97-640): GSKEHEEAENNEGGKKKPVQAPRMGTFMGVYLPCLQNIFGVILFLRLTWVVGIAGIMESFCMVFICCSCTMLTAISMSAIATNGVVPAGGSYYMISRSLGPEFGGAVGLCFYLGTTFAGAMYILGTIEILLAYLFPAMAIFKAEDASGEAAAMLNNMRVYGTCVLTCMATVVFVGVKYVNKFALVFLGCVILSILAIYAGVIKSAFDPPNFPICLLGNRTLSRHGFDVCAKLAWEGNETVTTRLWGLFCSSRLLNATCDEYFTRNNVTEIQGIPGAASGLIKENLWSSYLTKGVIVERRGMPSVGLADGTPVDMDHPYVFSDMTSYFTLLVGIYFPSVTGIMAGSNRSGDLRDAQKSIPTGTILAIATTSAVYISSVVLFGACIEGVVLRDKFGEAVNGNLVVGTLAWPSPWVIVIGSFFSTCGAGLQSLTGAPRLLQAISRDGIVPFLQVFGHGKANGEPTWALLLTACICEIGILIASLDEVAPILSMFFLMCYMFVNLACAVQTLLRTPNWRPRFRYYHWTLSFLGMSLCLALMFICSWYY

KCC2 deletion mutant TMD + CTD fused to GFP (rat), sequence (Q63633 whole entry, stated change not applied, the tested form may be a part): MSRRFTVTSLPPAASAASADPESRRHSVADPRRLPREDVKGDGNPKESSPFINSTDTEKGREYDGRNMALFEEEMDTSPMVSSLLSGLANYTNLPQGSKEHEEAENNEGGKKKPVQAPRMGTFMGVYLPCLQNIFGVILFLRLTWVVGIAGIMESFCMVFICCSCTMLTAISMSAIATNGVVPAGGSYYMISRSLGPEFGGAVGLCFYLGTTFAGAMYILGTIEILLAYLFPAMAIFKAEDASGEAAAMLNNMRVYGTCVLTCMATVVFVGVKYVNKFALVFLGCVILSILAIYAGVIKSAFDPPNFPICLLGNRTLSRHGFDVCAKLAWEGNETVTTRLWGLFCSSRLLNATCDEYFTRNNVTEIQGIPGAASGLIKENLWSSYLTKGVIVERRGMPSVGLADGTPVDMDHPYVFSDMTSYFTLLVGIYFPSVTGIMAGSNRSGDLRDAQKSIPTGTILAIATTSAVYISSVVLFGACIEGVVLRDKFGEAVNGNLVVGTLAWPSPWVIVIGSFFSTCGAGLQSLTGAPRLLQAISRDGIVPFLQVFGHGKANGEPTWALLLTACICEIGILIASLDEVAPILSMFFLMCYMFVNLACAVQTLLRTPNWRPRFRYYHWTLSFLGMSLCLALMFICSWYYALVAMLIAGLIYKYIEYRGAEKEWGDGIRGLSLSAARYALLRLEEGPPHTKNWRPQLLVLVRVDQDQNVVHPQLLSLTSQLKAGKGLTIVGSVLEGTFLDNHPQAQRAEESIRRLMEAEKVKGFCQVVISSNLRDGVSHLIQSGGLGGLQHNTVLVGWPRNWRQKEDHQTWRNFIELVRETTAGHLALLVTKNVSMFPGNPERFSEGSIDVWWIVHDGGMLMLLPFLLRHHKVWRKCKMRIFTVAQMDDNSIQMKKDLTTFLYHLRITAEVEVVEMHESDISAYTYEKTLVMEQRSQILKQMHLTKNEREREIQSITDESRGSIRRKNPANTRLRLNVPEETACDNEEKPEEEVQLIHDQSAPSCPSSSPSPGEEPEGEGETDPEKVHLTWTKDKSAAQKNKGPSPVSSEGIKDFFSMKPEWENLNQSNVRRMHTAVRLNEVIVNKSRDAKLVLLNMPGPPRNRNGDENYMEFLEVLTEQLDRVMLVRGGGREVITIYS
KCC2 deletion mutant NTD + TMD fused to GFP (rat), sequence (Q63633 1-640, stated change not applied): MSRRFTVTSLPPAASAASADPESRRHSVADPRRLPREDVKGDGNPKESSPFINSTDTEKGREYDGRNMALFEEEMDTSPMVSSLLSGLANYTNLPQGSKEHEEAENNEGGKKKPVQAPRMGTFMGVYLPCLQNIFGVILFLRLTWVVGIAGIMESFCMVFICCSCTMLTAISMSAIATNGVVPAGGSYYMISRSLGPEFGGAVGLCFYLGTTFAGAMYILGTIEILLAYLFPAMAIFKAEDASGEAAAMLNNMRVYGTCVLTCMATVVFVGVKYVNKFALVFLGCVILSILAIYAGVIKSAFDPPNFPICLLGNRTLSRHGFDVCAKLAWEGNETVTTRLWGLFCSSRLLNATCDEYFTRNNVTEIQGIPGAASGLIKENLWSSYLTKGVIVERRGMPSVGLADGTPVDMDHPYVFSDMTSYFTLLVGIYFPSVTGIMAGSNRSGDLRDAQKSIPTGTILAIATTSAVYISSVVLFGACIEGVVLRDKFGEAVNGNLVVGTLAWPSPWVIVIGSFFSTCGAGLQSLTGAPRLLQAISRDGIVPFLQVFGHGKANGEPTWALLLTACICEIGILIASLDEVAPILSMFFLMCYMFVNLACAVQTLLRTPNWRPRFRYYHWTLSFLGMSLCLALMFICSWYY

- relative amount of GABABR detected after isolation with the GFP antibody (FL-KCC2 = 100%) [1]: 68 % of FL-KCC2
- relative amount of GABABR detected after isolation with the GFP antibody (FL-KCC2 = 100%) [2]: 36 % of FL-KCC2
- relative amount of GABABR detected after isolation with the GFP antibody (FL-KCC2 = 100%) [3]: 76 % of FL-KCC2
Substance: GABAB receptor of rat GABABR1b and GABABR2, stably expressed in CHO cells (from UniProt Q9Z0U4-2 20-960; O88871 41-940) (complex)
